Source: US20190359711A1
Positions count from the first letter of the chain named.

Experiments:
[1] = biological target: CD3 on human pan T cells (human) (UniProt P07766); assay: flow cytometry competition on human pan T cells; competitor tracer AlexaFluor488 SP34-2 at 16.6 nM
[2] = biological target: CD3 on human pan T cells (human) (UniProt P07766); assay: Kd derived from the competition IC50: Kd=IC50/(1+([T]/KdT)); human pan T cells

CD3 on human pan T cells (human), sequence (P07766 23-207 limits assumed): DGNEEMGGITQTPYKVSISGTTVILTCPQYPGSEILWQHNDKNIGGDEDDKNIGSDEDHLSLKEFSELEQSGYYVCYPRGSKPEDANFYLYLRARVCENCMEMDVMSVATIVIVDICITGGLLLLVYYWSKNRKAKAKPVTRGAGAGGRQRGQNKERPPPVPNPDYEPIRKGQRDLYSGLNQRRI

B1: CD3B376 monovalent construct (bispecific antibody, part only; not given: second arm, constant regions, V domains shown, not shown: another chain or arm of the molecule; a dimerising Fc or GST)
VH: QVQLQQSGPRLVRPSQTLSLTCAISGDSVFNNNAAWSWIRQSPSRGLEWLGRTYYRSKWLYDYAVSVKSRITVNPDTSRNQFTLQLNSVTPEDTALYYCARGYSSSFDYWGQGTLVTVSS
VL: QSALTQPASVSGSPGQSITISCTGTSSNIGTYKFVSWYQQHPDKAPKVLLYEVSKRPSGVSSRFSGSKSGNTASLTISGLQAEDQADYHCVSYAGSGTLLFGGGTKLTVL
- IC50 [1]: 409 nM
- Kd [2]: 103 nM

B2: CD3B450 monovalent construct (bispecific antibody, part only; not given: second arm, constant regions, V domains shown, not shown: another chain or arm of the molecule; a dimerising Fc or GST)
VH: B1 VH with R10G, R13K, V73I, R79K, T83S, L96V
VL: B1 VL with D43G, L49M, L50I, S62N, Q85E, H89Y
- IC50 [1]: 1010 nM
- Kd [2]: 254 nM
